Measured values from IntAct's records for PubMed 30262834.

Molecular target: lrrt2_human LRRTM2 (UniProt O43300)
Sequence (O43300 whole entry): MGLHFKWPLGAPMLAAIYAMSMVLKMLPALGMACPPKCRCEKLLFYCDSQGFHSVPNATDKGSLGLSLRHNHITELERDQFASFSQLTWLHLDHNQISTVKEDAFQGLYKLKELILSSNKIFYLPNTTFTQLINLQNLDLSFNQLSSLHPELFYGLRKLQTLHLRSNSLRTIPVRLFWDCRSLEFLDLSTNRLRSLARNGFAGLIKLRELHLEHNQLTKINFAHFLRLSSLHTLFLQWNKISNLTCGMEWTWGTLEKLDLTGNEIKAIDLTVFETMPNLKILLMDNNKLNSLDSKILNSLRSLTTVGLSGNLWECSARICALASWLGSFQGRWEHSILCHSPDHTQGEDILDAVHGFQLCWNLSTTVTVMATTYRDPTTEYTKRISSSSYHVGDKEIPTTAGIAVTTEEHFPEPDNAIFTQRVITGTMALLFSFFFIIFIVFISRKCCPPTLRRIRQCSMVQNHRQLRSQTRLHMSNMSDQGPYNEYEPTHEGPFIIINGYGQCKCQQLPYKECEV

Neurexin-1-beta (Homo sapiens), P58400-1 D141A, sequence (P58400 other isoform, or with tags, fused parts or gaps D141A): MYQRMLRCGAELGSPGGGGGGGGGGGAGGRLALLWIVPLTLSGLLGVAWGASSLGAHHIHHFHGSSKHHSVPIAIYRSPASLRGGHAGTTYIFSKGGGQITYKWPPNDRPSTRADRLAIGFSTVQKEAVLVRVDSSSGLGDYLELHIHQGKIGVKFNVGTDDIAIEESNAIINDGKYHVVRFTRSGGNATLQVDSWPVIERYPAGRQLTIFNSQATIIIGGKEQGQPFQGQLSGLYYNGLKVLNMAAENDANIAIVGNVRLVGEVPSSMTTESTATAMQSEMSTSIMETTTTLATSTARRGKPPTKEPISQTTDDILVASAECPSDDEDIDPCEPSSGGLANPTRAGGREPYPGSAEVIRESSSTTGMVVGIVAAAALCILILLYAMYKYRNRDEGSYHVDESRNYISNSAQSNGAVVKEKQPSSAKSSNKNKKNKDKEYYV

effect of a mutation on the interaction: disrupting interaction strength
Substance: Neurexin-1-beta (Homo sapiens), P58400-1 D141A
